Legend:
[1] = molecular target: T1, human MUC16 (mucin 16) (human); assay: MSD ECL cell binding, RLU ratio OVCAR-3 vs SK-OV-3, 16.7 nM Ab
T1 construct: Endogenously expressed on human tumour cell lines; also called hMUC16
Method: (§1) The ability of anti-MUC16 antibodies to bind specifically to endogenously expressing MUC16 on the human ovarian carcinoma cell line (OVCAR-3) was evaluated via an electrochemiluminescence based detection assay (Meso Scale Discovery (MSD), Rockville, Md.). […] Detached cells were then washed once in 1×PBS supplemented with Ca²⁺/Mg²⁺ and counted (Cellometer Auto T4 cell counter, Nexcelom Bioscience, Lawrence, Mass.). Approximately 1.0×10⁴ cells were plated in MULTI-ARRAY 96-well carbon electrode plates (MSD) and incubated for 1 h at 37° C. […] Next, serial dilutions of anti-MUC16 or control antibodies (0.85 pM-50 nM) and no-antibody buffer controls were added to the plate-bound cells and incubated for 1 h at room temperature (RT). Plates were then washed to remove the unbound antibodies using an AquaMax2000 plate washer (MDS Analytical Technologies, Sunnyvale, Calif.). Plate-bound antibodies were detected with a SULFO-TAG™-conjugated anti-human kappa light chain antibody (Regeneron) or a SULFO-TAG™-conjugated anti-mouse IgG antibody (Jackson Immunoresearch, West Grove, Pa.) for 1 h at RT. Post-wash, plates were developed with Read Buffer (MSD) according to manufacturer's protocol and luminescent signals were recorded with a SECTOR Imager 6000 (MSD) instrument.
(§2) Luminescence intensity, measured in relative light units (RLU), for the two cell lines was recorded to indicate the binding intensity of each antibody.

[2] = molecular target: T1, human MUC16 (mucin 16); assay: MSD ECL cell binding, RLU ratio OVCAR-3 vs SK-OV-3, 1.9 nM Ab
Method: as §1, §2

Ratio anti-MUC16 Binding OVCAR-3/SK-OV-3 [1] [ratio]	Ratio anti-MUC16 Binding OVCAR-3/SK-OV-3 [2] [ratio]	Binder
5	30	H2M7135N (antibody, mouse IgG2, V domains shown, Human variable regions, mouse IgG2 constant region) VH: EVQLVESGGGLVQAGGSLRLSCAASGFTFSYHEMNWVRQAPGKGLEWVSYIGSRGTTKHYADPVKGRFTISRDNAKNSLYLQMNSLRAEDTAVYYCASEVGSILGYSMDVWGQGTTVTVSS VL: DIQMTQSPSSLSASVGDRVTITCRASQSVSRYLNWCQQKPGKAPKLLTYAASSLQSGVPSRFSGSGSGTDFTLTISSLQPEDFAAYFCQQSYSTPPITFGQGTRLEIK
3	9	H1H8770P (antibody, human IgG1, V domains shown, Human IgG1) VH: QVQLVESGGGVVQPGRSLRLSCAASGFTFSDHGMHWVRQAPGKGLEWVAVISYHGSNKHYADSVKGRFTISRDNSKNALYLQMNSLRPEDTAMYYCAKDGYDFWNGYSLFDYWGQGTLVTVSS VL: DIQMTQSPSSLSASVGDRVTITCRASQSISNYLNWYQQKPGKAPKLLIYTASNLLSGVPSRFSGSGSGTDFTLTISSLQPEDFATYYCQQSYSTPPITFGQGTKLEIK
4	11	H1H8783P (antibody, human IgG1, V domains shown, Human IgG1) VH: QVQLVESGGGVVQPGRSLRLSCAASGFTFSDHAMHWVRQAPGKGLEWVAVISYHGTDKQYGDSVKGRFTISRDNSKNALYLQMNSLRPEDTAMYYCAKDGYDFWNAYSLFDYWGQGTLVTVSS VL: DIQMTQSPSSLSASVGDRVTITCRASQSISNYLNWYQQKPGKAPKLLIYTASSLLSGVPSRFSGSGSGTDFTLTISSLQPEDFATYYCQQSYSTPPITFGQGTRLEIK
120	153	H1M9528N (antibody, mouse IgG1, V domains shown, Human variable regions, mouse IgG1 constant region) VH: QMQLQESGPGLVKPSETLSLTCTVSGGSISSYYWNWIRQPPGKGLEWIGYIYYSGNNFNPSLKSRVTISVDTSKNQFSLKLSSVTAADTAVYYCARAFHWNYEFDYWGQGTLVTVSS VL: EIVLTQSPGTLSLSPGERATLSCRASQSVSNNYLAWYQQKPGQAPRLLLYGASSRTTDIPDRFSGSGSGTDFTLTISRLEPEDFAVYYCQQYDNSPLTFGGGTKVEIR
18	41	H1H9528N (antibody, human IgG1, V domains shown, Human IgG1 form of H1M9528N) VH: QMQLQESGPGLVKPSETLSLTCTVSGGSISSYYWNWIRQPPGKGLEWIGYIYYSGNNFNPSLKSRVTISVDTSKNQFSLKLSSVTAADTAVYYCARAFHWNYEFDYWGQGTLVTVSS VL: EIVLTQSPGTLSLSPGERATLSCRASQSVSNNYLAWYQQKPGQAPRLLLYGASSRTTDIPDRFSGSGSGTDFTLTISRLEPEDFAVYYCQQYDNSPLTFGGGTKVEIR
3	8	H1H8790P (antibody, human IgG1, V domains shown, Human IgG1) VH: EVQLVESGGGLVQPGGSLRLSCEASGFTFSNYAMSWVRQAPGKGLEWVSGMSGSGTYPYYADSVKGRFTISRDNSKNMLYLQMNSLRVKDTAVYYCAKDGVDTAMILDTFDLWGQGTMVTVSS VL: not shown
50	82	H2M7138N (antibody, mouse IgG2, V domains shown, Human variable regions, mouse IgG2 constant region; also called H2aM7138N) VH: QVQLVQSGAEVKKPGASVKVSCKASGYTFTSSDINWVRQATGQGLEWVGWMNPNYGYTGSARKFQDRVTMTRNTSLSTAYLELHSLRSEDTAVYYCARVTYCSSVTSCFRPFTYWGQGTLVTVSA VL: not shown
57	81	H3M9524N (antibody, mouse IgG3, V domains shown, Human variable regions, mouse IgG3 constant region) VH: QVQLQQWGAGLLKPSETLSLTCAVYGGSFSDYYWSWIRQPPGKGLEWIGEINHRGKTNYNPSLKSRVSISVDPSKNQFSLKLSSVTAADTAVYYCARQGWNYAIFDYWGQGILVPVSS VL: not shown
51	137	H3M9525N (antibody, mouse IgG3, V domains shown, Human variable regions, mouse IgG3 constant region) VH: QVQLQQWGAGLLKPSETLSLTCAVYGGSFSGYYWSWIRQPPGKGLEWIGEINHSGKTTYSPSLKSRVTISVDTSKSQFSLKLSSVTAADTAVYYCARQGLNYAIFDYWGQGTLVTVSS VL: not shown
21	4	H1H9525N (antibody, human IgG1, V domains shown, Human IgG1 form of H3M9525N) VH: QVQLQQWGAGLLKPSETLSLTCAVYGGSFSGYYWSWIRQPPGKGLEWIGEINHSGKTTYSPSLKSRVTISVDTSKSQFSLKLSSVTAADTAVYYCARQGLNYAIFDYWGQGTLVTVSS VL: not shown
48	20	H1H9524N (antibody, human IgG1, V domains shown, Human IgG1 form of H3M9524N) VH: QVQLQQWGAGLLKPSETLSLTCAVYGGSFSDYYWSWIRQPPGKGLEWIGEINHRGKTNYNPSLKSRVSISVDPSKNQFSLKLSSVTAADTAVYYCARQGWNYAIFDYWGQGILVPVSS VL: not shown
29	77	H1M7137N (antibody, mouse IgG1, V domains shown, Human variable regions, mouse IgG1 constant region) VH: QVQLQESGPGLVKPSETLSLTCTVSGGAINTYYWSWIRQPPGKGLEWIGYIYYRGNTNYNPSLRSRVTISVDTSKNQFFLKLRSVTVADSAVYFCARGWNYRAEYFQHWGQGTVVTVSS VL: not shown
5	13	H1H8755P (antibody, human IgG1, V domains shown, Human IgG1 (H1H: hIgG1)) VH: EVQLVESGGGLVQPGRSLRLSCAASGFTFNDYAMHWVRQSPGKGLEWVSGIDWNGGSIDYADSVKGRFTISRDTAKNSLYLQMNSLKVEDTALYYCAKDIGHWNYIGGMDVWGQGTTVTVSS VL: DIQMTQSPSSLSASVGDRVTITCRASQSINIYLNWYQQKPGKAPKFLIYAASSLQTGVPSRFSGSGSGTDFTLTISSLEPEDFATYYCQHSYSTPPITFGQGTRLEIK
3	8	H1H8794P (antibody, V domains shown, Human IgG1) VH: QVQLVESGGGLVKPGGSLRLSCAASGFTFRDYSMSWIRQAPGKGLEWVSYVTFFNSAIYYADSVKGRFTISRDNAKNSLYLQMNSLRAEDTAVYYCAREREPIVGGFDYWGQGTLVTVSS VL: DIQMTQSPSSLSASVGDRVTITCRASQSINSYLNWYQQKPGKAPKLLIYAASSLQGGVPSRFSGGGSGTDFTLTITSLQPEDFATFYCQQSYSSPPITFGQGTRLEIK
26	89	H2M9538N (antibody, V domains shown) VH: QVQLQESGPGLVKPSETLSLTCTVSGGSISSYYWSWIRQPPGKGLEWIGYIYYSGSTNYNPSLKSRVTISVDTSKNQFSLKLSSVTAADTAVYYCARKKLVFDYWGQGTLVTVSS VL: not shown
13	12	H1H9538N (antibody, V domains shown) VH: QVQLQESGPGLVKPSETLSLTCTVSGGSISSYYWSWIRQPPGKGLEWIGYIYYSGSTNYNPSLKSRVTISVDTSKNQFSLKLSSVTAADTAVYYCARKKLVFDYWGQGTLVTVSS VL: not shown
99	143	H3M9529N (antibody, mouse IgG3, V domains shown, Human variable regions, mouse IgG3 constant region) VH: QVQLQQWGAGLLKPSETLSLTCAVYGGSFSGFYWSWIRQPPGKGLEWIGEINHSGSAKYNPSLKNRVIISIDTSKNQFSLKLDSVTAADTAVYNCARQGWNFAIFDYWGQGTLVDVSS VL: DIVMTQSPDSLAVSLGGRATINCKSSQSVLHSSYNKDHLAWYQQRPGQPPKLLIYWASTRESGVPDRFSGSGSGTDFTLTISSLQAEDVAVYYCQQYNILPPTFGQGTRVEIK
74	109	H1H9529N (antibody, human IgG1, V domains shown, Human IgG1 form of H3M9529N) VH: QVQLQQWGAGLLKPSETLSLTCAVYGGSFSGFYWSWIRQPPGKGLEWIGEINHSGSAKYNPSLKNRVIISIDTSKNQFSLKLDSVTAADTAVYNCARQGWNFAIFDYWGQGTLVDVSS VL: DIVMTQSPDSLAVSLGGRATINCKSSQSVLHSSYNKDHLAWYQQRPGQPPKLLIYWASTRESGVPDRFSGSGSGTDFTLTISSLQAEDVAVYYCQQYNILPPTFGQGTRVEIK

Reference: patent publication US20180118848A1 (Regeneron, published 2018)
